Test results: the supplement of paper PMC9732359
± gives the uncertainty stated by the source.

Test: protein stability index of a GFP-peptide fusion (yeast GPS) (PSI 1-4); higher = more stable; sorted into four equal gates, so the index is relative within each strain
In short: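 Sequencing reads from sorted gates were used to score each peptide. The library consisted of tiled 17-residue yeast protein peptides fused downstream of GFP on a Cherry-expressing plasmid, pooled and carried in yeast. Mid-log cultures in leucine-free medium were split into four equal gates by GFP/Cherry ratio, and each gate's plasmids were PCR-amplified and Illumina-sequenced. The protein stability index adds up, over all gates, the read frequency multiplied by the gate number.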

Sequence | protein stability index (doa10∆) | protein stability index (pdr5∆) | protein stability index (san1∆) | protein stability index (ubr1∆)
KTDFAKIINKPNELSQI [RPC82] | 3.09 ± 0.12 | 3.13 ± 0.12 | 2.84 ± 0.091 | 3.12 ± 0.14
GDIVLTRVTRLSLQRAN [CSL4] | 2.14 ± 0.098 | 1.41 ± 0.093 | 1.59 ± 0.16 | 1.32 ± 0.12
KEKWPSLELQSFQKIPL [YML103C/NUP188] | 2.27 ± 0.1 | 2.62 ± 0.12 | 2.03 ± 0.11 | 2.73 ± 0.11
AGTEANAVSFDTTFSDF [SRB4] | 3.03 ± 0.042 | 3.06 ± 0.045 | 3.036 ± 0.029 | 3.02 ± 0.038
LPKYKEKKAASAKQTAP [MED7] | 2.71 ± 0.095 | 2.97 ± 0.078 | 2.74 ± 0.056 | 2.61 ± 0.066
VKIGDIEKWTANLLPAR [RPS22A] | 2.19 ± 0.076 | 2.65 ± 0.095 | 2.56 ± 0.076 | 3.17 ± 0.087
NNNETSKPAFSFGAKSD [YJL041W/NSP1] | 2.93 ± 0.11 | 3.1 ± 0.083 | 3.15 ± 0.067 | 3.61 ± 0.29
SKEQIHGSIIILGMLSL [YCS4] | 2.45 ± 0.053 | 2.32 ± 0.05 | 2.72 ± 0.049 | 2.82 ± 0.045
KNVLANSIWGSSLRKNA [ITC1] | 1.49 ± 0.057 | 1.89 ± 0.05 | 1.82 ± 0.13 | 1.45 ± 0.042
HFSKDDYSPESKGFVEN [RPO21] | 2.88 ± 0.17 | 2.28 ± 0.17 | – | –
KFGACVAQGIMNAGGRN [RPN2] | 3.02 ± 0.14 | 2.73 ± 0.28 | 2.52 ± 0.23 | 2.52 ± 0.13
FTSAPIEVTIGIDQYSF [AAR2] | 1.52 ± 0.09 | 1.93 ± 0.086 | 1.53 ± 0.12 | 1.64 ± 0.082
NKLSSILQNEHDYWNKI [SRB4] | 2.37 ± 0.069 | 2.41 ± 0.05 | 2.25 ± 0.099 | 2.47 ± 0.043
QKRIENGGNSVITLAEY [SRP68] | 2.47 ± 0.076 | 2.89 ± 0.081 | 2.9 ± 0.069 | 3.22 ± 0.1
NGDLTVSLCAKNMGLVP [SSN2] | 2.22 ± 0.081 | 2.23 ± 0.079 | 2.13 ± 0.091 | 2.17 ± 0.087
SSIVAIDWASPEYGRII [YGL100W/SEH1] | 2.57 ± 0.13 | 3.16 ± 0.13 | 2.82 ± 0.079 | 2.69 ± 0.061
DDVTCDKLSVSEISDGK [SIN4] | 2.97 ± 0.073 | 3.11 ± 0.078 | 2.81 ± 0.08 | 3.29 ± 0.058
LRRVEERFTKSKTLSLI [FAS1] | 2.31 ± 0.076 | 2.09 ± 0.059 | 2.17 ± 0.087 | 1.79 ± 0.037
SGKLRDYQVQGLNWLIS [ISW2] | 2.58 ± 0.07 | 2.71 ± 0.053 | 2.33 ± 0.065 | 2.85 ± 0.039
LNYGNICEPKETLSIFT [YJL039C/NUP192] | 2.02 ± 0.061 | 1.75 ± 0.056 | 2.02 ± 0.12 | 1.73 ± 0.054
AGAVAPEDIWVRAVNTG [RPP0] | – | – | 1.93 ± 0.28 | 1.31 ± 0.29
SSSPLAMSETLSKVSLL [PRE8] | 2.53 ± 0.071 | 2.83 ± 0.084 | 2.67 ± 0.1 | 2.32 ± 0.059
GHLPEVSSKCNDIHLRF [ECM29] | 2.69 ± 0.11 | 2.92 ± 0.082 | – | 3.17 ± 0.17
HKHALHGTAKALAAAKK [RPL29] | 2.398 ± 0.023 | 2.425 ± 0.02 | 2.24 ± 0.023 | 2.323 ± 0.018
PTLGERLDNLQDIKKAK [DSN1] | 1.54 ± 0.082 | 1.25 ± 0.041 | 2.71 ± 0.085 | 2.86 ± 0.064
MARGPKKHLKRLAAPHH [RPS4A] | 2.9 ± 0.13 | 3 ± 0.087 | 3.1 ± 0.069 | 3.05 ± 0.054
